The source of these data is PMC5623714, “Cofactor Tail Length Modulates Catalysis of Bacterial F420-Dependent Oxidoreductases” (Frontiers in Microbiology, 2017).

The target of data set [1] is T1, MSMEG_2027 (F420H2-dependent quinone reductase, FDOR-A) (Mycolicibacterium smegmatis, UniProt A0QU01).
T1 construct: recombinant in E. coli BL21(DE3), Ni-NTA purified; monomer
T1 sequence (A0QU01 1-140): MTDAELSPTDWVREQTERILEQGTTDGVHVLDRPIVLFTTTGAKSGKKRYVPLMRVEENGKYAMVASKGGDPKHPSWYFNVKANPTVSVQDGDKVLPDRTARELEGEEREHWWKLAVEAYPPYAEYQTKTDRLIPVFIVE
Description: intrinsic tryptophan fluorescence quenching. The format is binding. Particulars: read-out: F420 Kd. The text has this: intrinsic tryptophan fluorescence quenching on MSMEG_2027 (F420H2-dependent quinone reductase, FDOR-A)

Data set [2] concerns the target T2, MSMEG_3380 (promiscuous F420H2-dependent reductase, FDOR-B) (Mycolicibacterium smegmatis, UniProt A0QXP8).
T2 construct: recombinant in E. coli BL21(DE3), Ni-NTA purified; dimer
Description: intrinsic tryptophan fluorescence quenching. The data set is classed as binding. The note with it: read-out: F420 Kd. From the text: intrinsic tryptophan fluorescence quenching on MSMEG_3380 (promiscuous F420H2-dependent reductase, FDOR-B)

In data set [3] the target is T3, Fgd (F420-dependent glucose 6-phosphate dehydrogenase MSMEG_0777) (Mycolicibacterium smegmatis, UniProt A0QQJ4).
T3 construct: recombinant in E. coli BL21(DE3), Ni-NTA purified; LLHT family
T3 sequence (A0QQJ4 2-336): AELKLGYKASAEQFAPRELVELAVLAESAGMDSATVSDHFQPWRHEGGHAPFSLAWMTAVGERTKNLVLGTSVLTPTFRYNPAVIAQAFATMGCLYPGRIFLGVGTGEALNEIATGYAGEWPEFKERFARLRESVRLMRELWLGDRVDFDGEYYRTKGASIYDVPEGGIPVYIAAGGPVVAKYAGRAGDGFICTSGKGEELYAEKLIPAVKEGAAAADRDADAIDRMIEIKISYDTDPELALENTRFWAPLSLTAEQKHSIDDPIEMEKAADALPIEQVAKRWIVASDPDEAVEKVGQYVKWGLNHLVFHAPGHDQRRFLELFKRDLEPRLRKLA
Description: intrinsic tryptophan fluorescence quenching. The data set is classed as binding. The text has this:
intrinsic tryptophan fluorescence quenching on Fgd (F420-dependent glucose 6-phosphate dehydrogenase MSMEG_0777)

Substrate in data set [4]: O=C1C=CCCC1
Kind of data set: purified protein. The note with it: 50 μM long-chain F420H2 (mycobacterial), 200 mM TrisHCl, 0.1% Triton X-100, pH 8.0. The format is biochemical, Mycolicibacterium smegmatis.

Substrate in data set [5]: CC1=CC(=O)c2ccccc2C1=O
Kind of data set: purified protein. The format is biochemical, Mycolicibacterium smegmatis. Particulars: 50 μM long-chain F420H2 (mycobacterial), 200 mM TrisHCl, 0.1% Triton X-100, pH 8.0.

Turning to `C[C@H](OP(=O)(O)OC[C@@H](O)[C@@H](O)[C@@H](O)Cn1c2nc(=O)[nH]c(=O)c-2cc2ccc(O)cc21)C(=O)N[C@@H](CCC(=O)N[C@@H](CCC(=O)O)C(=O)O)C(=O)O` [F420-2, short-chain F420], the values for the Kd in data set [1], in data set [2] and in data set [3] were 1430 ± 120 nM, 570 ± 50 nM and 4180 ± 290 nM, respectively.

B1: MSMEG_3380 (promiscuous F420H2-dependent reductase, FDOR-B) (Mycolicibacterium smegmatis MC2 155) (protein)
chain: MVAVPEGYESLLERPLYGHLATVRPDGTPQVNAMWFAWDGEVLRFTHTTKRQKYRNIKANPAVAMSVIDPDNPYRYLEVRGLVEDIVPDPTGAFYLKLNDRYDGPLTEPPADKADRVIIVVRPTAFSKQ
notes: recombinant in E. coli BL21(DE3), Ni-NTA purified; dimer
Regarding B1, in the data set “purified protein [4]”, the Km (as a rule, the concentration of substrate that gives half-maximal velocity) came to 259 ± 41 µM; the kcat (as a rule, the maximal rate divided by the concentration of active sites) was found to be 0.025 ± 0.001 s⁻¹; the kcat/Km (usually the second-order rate constant that governs catalysis at low substrate concentration) amounted to 96 M⁻¹ s⁻¹.

B2: MSMEG_2027 (F420H2-dependent quinone reductase, FDOR-A) (Mycolicibacterium smegmatis MC2 155) (protein)
chain: MTDAELSPTDWVREQTERILEQGTTDGVHVLDRPIVLFTTTGAKSGKKRYVPLMRVEENGKYAMVASKGGDPKHPSWYFNVKANPTVSVQDGDKVLPDRTARELEGEEREHWWKLAVEAYPPYAEYQTKTDRLIPVFIVE
notes: recombinant in E. coli BL21(DE3), Ni-NTA purified; monomer
Turning to B2, in “purified protein [5]”, the Km was determined as 25.6 ± 9.2 µM, the kcat is 0.084 ± 0.007 s⁻¹ and the kcat/Km turned out to be 3280 M⁻¹ s⁻¹.
